These results are taken from article PMC10359635, “Cas1–Cas2 physically and functionally interacts with DnaK to modulate CRISPR Adaptation”.

For data set [1], the target named is DnaK (Escherichia coli (K-12 MG1655), UniProt P0A6Y8 1-638). The experiment in a line: EMSA; mixed with Cy5-ssDNA; EMSA: 20 nM Cy5 fork, 20 mM Tris pH 8.0, 0.1 mg/ml BSA, 7% glycerol (25% after DnaK addition); proteins diluted in 20 mM Tris pH 8.0, 100 mM NaCl, 1 mM DTT; Cas1 preincubated 5 min, then 25 min at 37 C; 5% native acrylamide gel. To be noted: protein: recombinant; tags: N-terminal 6xHis; label: 5'-Cy5 on MW14; fork: 24 bp duplex 1:2-25 2:27-50; 3' arm of strand 1 25 nt, 5' arm of strand 2 26 nt; 1 nt 5' overhang on strand 1. On the technique in general: A gel shift assay detects complexes by their altered migration in electrophoresis.

The target of data set [2] is T1, Cas1 (Escherichia coli, UniProt Q46896 1-305).
T1 sequence: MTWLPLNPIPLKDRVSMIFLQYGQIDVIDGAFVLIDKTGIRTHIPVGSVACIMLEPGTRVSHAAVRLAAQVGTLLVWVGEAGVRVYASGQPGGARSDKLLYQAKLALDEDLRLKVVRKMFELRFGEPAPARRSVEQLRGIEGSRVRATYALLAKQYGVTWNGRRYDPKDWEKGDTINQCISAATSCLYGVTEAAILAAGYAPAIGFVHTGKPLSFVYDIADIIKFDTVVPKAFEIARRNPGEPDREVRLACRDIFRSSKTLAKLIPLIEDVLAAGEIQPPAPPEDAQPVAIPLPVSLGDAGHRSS
The experiment in a line: EMSA; mixed with Cy5-ssDNA decoy; aggregates in wells at highest Cas1; EMSA: 20 nM Cy5 fork, 20 mM Tris pH 8.0, 0.1 mg/ml BSA, 7% glycerol (25% after DnaK addition); proteins diluted in 20 mM Tris pH 8.0, 100 mM NaCl, 1 mM DTT; Cas1 preincubated 5 min, then 25 min at 37 C; 5% native acrylamide gel. To be noted: protein: recombinant; tags: C-terminal Strep-tag II; chain copies: 2; label: 5'-Cy5 on MW14; fork: 24 bp duplex 1:2-25 2:27-50; 3' arm of strand 1 25 nt, 5' arm of strand 2 26 nt; 1 nt 5' overhang on strand 1.

Data set [3] deals with DnaK S427P (Escherichia coli (K-12 MG1655), UniProt P0A6Y8 1-638, S427P). Kind of data set: EMSA; EMSA: 20 nM Cy5 fork, 20 mM Tris pH 8.0, 0.1 mg/ml BSA, 7% glycerol (25% after DnaK addition); proteins diluted in 20 mM Tris pH 8.0, 100 mM NaCl, 1 mM DTT; Cas1 preincubated 5 min, then 25 min at 37 C; 5% native acrylamide gel. Particulars: protein: recombinant; tags: N-terminal 6xHis; label: 5'-Cy5 on MW14; fork: 24 bp duplex 1:2-25 2:27-50; 3' arm of strand 1 25 nt, 5' arm of strand 2 26 nt; 1 nt 5' overhang on strand 1.

B1: Fork (flayed duplex MW12/MW14) (dsDNA)
DNA 1: GTCGGATCCTCTAGACAGCTCCATGATCACTGGCACTGGTAGAATTCGGC
DNA 2: CAACGTCATAGACGATTACATTGCTACATGGAGCTGTCTAGAGGATCCGA
Take B1: the values for the binding result in data set [1], in data set [2] and in data set [3] were “no binding”, “binds” and “no binding”, respectively.
